Assay results reported in the nanobody polyreactivity screen of Harvey et al. (2022).

Assay: yeast display, Sf9 membrane polyspecificity reagent, FACS + sequencing; frameworks hold sequencing errors
In short: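 Nanobodies came from a synthetic yeast display library in Saccharomyces cerevisiae BJ5465, induced with galactose for 36–48 hours and stained for 1 hour at 4 °C with 10% biotinylated, detergent-solubilized Sf9 membrane reagent. Cells were enriched on streptavidin microbeads and then FACS-sorted, with low and high (top ~1%) gates set on anti-HA fluorescence for expression and streptavidin fluorescence for reagent binding. Each polyreactivity label reflects the gate a clone came from. Genes were amplified by colony PCR, sequenced by MiSeq 2 × 250 and filtered by CDR length.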

Row | Sequence | polyreactivity (PSR sort gate)
1 | QVQLVESGGGLVQAGGSLRLSCAASGRTFGTNTMGWYRQAPGKERELVAAIRRGGGTNYADSVKGRFTISRDNAKNTVYLQMNSLKPEDTAVYYCAAVRWNTGVGYYYWGQGTQVTVSS | high polyreactivity
2 | QVQLVESGGGLVQAGGSLRLSCAASGSIFGRYAMGWYRQAPGKERELVAAISSSGGRTYYADSVKGRFTISRDNAKNTVYLQMNSLKPEDTAVYYCNAGTPYRGDYWGQGTQVTVSS | high polyreactivity
3 | QVQLVESGGGLVQAGGSLRLSCAASGSTFGHYAMGWSRQAPGKERELVARITSDDSTSYADSVKGRFTISRDNAKNTVYLQMNSLKPEDTAVDYCAARYYSYSWHPARYQGRYSWGQGTQVTVSS | high polyreactivity
4 | LVQLVESGGGLVQAGGSLRLSCAASGIIFRDNAMGWYRQAPGKERELVAAIDSSGGTTYADSVMGRFTISRDNAKNTVYLQMNSLKPEDTAVFYCATEVYWTVSYYGYDYYGGNYYYWGQGTQVTVSS | low polyreactivity
5 | QDQLVDSGGGLVQAGGSLRLSCAATGRSFRRYFMGWYIPAPGKERELVAAISYSGATTYYADSVKGRFTISRDYAKNNVYLQMNSLKKEDTAVYYFAATAPGDRYYWGQGTQVTVSS | high polyreactivity
6 | QVQLVESGGGLVQAGGSLRLSCAASGRIFHWYAMGWYRQAPGKERELVATANTSYADSVKGRFTISRDNAKNTVYLQMNSLKPEDTAVYYCATVGPRGRSLGDYWGQGTQVTVSS | low polyreactivity
7 | QVQLVESGGGLVQAGGSLRLSCAASGSTFWGYAMGWSRPAPGKERELVATITTGGGGTYYADSVKGRFTISRDNAKNTVYLQMNSLKPEDTAVYYCAARLRDGRTPRTEYDYWGQGTQVTVSS | low polyreactivity
8 | QVQIVESGGGLVQAGGSLRLSCAAYGSIFVRNVMGWYRQAPGKERELVATIRYRGGSTYYADSVKGRFTISRDNAKNTVYLQMNSLKPEDTAVYYCNARYLWADEYYYWGQGTQVTVSS | low polyreactivity
9 | QVQLVDSGGGLVQAGGSLRLSCAASGSTFKIYAMGWYRQAPGKERELVARITSGGSTNYADSVKGRFTISRDNAKNTVYLQMNSLKPEDTAVYYCAARRWSYSTRGQRSSNLDYWGHGTQVTVSS | high polyreactivity
10 | QVQLVESGGGFVQAGGSLRLSCAASGSTCDGYSMGWYRQAPGKERELVAGISTSGGSTYYADSVKGRFTISRDNAKNTVYLQMNSLKPEDTAVYYCAAEWFDQVKDRAADYISYEYWGQGTQVTVSS | low polyreactivity
11 | QVQLVESGGGLVQAGGSLRLSCAASGYTFRAYVMGWYRQAPGKERELVAGITRRGGTTYYADSVKGRFTISRDNAKNTVYLQMNSLKPEDTAVYYCNAVFRSGSIPYDSWGQGTQVTVSS | high polyreactivity
12 | QVQLVESGGGLVQAGGSLRLSCAASGCIFAHNAMGWYRQAPGKERELVAASTYYADSVKGRFTISRDNAKNTVYLQMNSLKPEDTAVYYCAKRTRFSPGHDYWGQGTQVTVSS | high polyreactivity
13 | QVQLEESGGGLVQAGGSLRLSCAASGYTFYRYTMGWYRQAPGKERELVAAISSRGGSKYYADSVKGRFTISRDNAKNTVYLQMNSLKPEDTAVYFCARKYPRKTLSKGFDYWGQGTQVTVSS | high polyreactivity
14 | QVQLVESGGGLVQAGGSLRLSCAASGRIFRDYVMGWYRQAPGKERELVAAITQRGGSTYYADSVKGRFTISRDNAKNTVYLQLNSLKPEDTAVYYCNARWYRYGTGGVGYGGYDYWGQGTQVTVSS | low polyreactivity
15 | QVQLVESGGGLVQAGGSLRLSCAASGSIFYTNAMGWYRQAPGKERELFASISRRGGSTYYADSVKGRFTISRDNAKNTVYLQMNSLKPEDTAVYYFATDGYTPYRWLWWLMDYWGQGTQVTVSS | high polyreactivity
16 | QVQLVESGGGLVQAGGSIRLSCAASGRTLPEYVMGWYRQAPGKERELVAAITTAGSTNYADSVKGRFTISRDNAKNTVYLQINCLKPEDTAVYYCAGTTRSRGFRDIDYWGQGTQVTVSS | low polyreactivity
17 | QVQLVESGGGLVQAGGSLRLSCDDSGSIFWWYTMGWYRQAPGKERELVAAITWNADGTYYADSVKGRFTISRDNAKNTVYLPINSLKPEDTAVYYCAADQYYLDWGGGYDYWGQGTQLTVSS | low polyreactivity
